Test results taken from IntAct's records for PubMed 18385733.

B1: Mediator of RNA polymerase II transcription subunit 15 (Saccharomyces cerevisiae), P19659 (parent)
chain: MSAAPVQDKDTLSNAERAKNVNGLLQVLMDINTLNGGSSDTADKIRIHAKNFEAALFAKSSSKKEYMDSMNEKVAVMRNTYNTRKNAVTAAAANNNIKPVEQHHINNLKNSGNSANNMNVNMNLNPQMFLNQQAQARQQVAQQLRNQQQQQQQQQQQQRRQLTPQQQQLVNQMKVAPIPKQLLQRIPNIPPNINTWQQVTALAQQKLLTPQDMEAAKEVYKIHQQLLFKARLQQQQAQAQAQANNNNNGLPQNGNINNNINIPQQQQMQPPNSSANNNPLQQQSSQNTVPNVLNQINQIFSPEEQRSLLQEAIETCKNFEKTQLGSTMTEPVKQSFIRKYINQKALRKIQALRDVKNNNNANNNGSNLQRAQNVPMNIIQQQQQQNTNNNDTIATSATPNAAAFSQQQNASSKLYQMQQQQQAQAQAQAQAQAQAQAQAQAQAAQAAQAQAQAQAQAQAQAQAQAQAQAQAQAQAQAQAQAHAQHQPSQQPQQAQQQPNPLHGLTPTAKDVEVIKQLSLDASKTNLRLTDVTNSLSNEEKEKIKMKLKQGQKLFVQVSNFAPQVYIITKNENFLKEVFQLRIFVKEILEKCAEGIFVVKLDTVDRLIIKYQKYWESMRIQILRRQAILRQQQQMANNNGNPGTTSTGNNNNIATQQNMQQSLQQMQHLQQLKMQQQQQQQQQQQQQQQQQQQQQQQHIYPSSTPGVANYSAMANAPGNNIPYMNHKNTSSMDFLNSMENTPKVPVSAAATPSLNKTINGKVNGRTKSNTIPVTSIPSTNKKLSISNAASQQPTPRSASNTAKSTPNTNPSPLKTQTKNGTPNPNNMKTVQSPMGAQPSYNSAIIENAFRKEELLLKDLEIRKLEISSRFKHRQEIFKDSPMDLFMSTLGDCLGIKDEEMLTSCTIPKAVVDHINGSGKRKPTKAAQRARDQDSIDISIKDNKLVMKSKFNKSNRSYSIALSNVAAIFKGIGGNFKDLSTLVHSSSPSTSSNMDVGNPRKRKASVLEISPQDSIASVLSPDSNIMSDSKKIKVDSPDDPFMTKSGATTSEKQEVTNEAPFLTSGTSSEQFNVWDWNNWTSAT
partner: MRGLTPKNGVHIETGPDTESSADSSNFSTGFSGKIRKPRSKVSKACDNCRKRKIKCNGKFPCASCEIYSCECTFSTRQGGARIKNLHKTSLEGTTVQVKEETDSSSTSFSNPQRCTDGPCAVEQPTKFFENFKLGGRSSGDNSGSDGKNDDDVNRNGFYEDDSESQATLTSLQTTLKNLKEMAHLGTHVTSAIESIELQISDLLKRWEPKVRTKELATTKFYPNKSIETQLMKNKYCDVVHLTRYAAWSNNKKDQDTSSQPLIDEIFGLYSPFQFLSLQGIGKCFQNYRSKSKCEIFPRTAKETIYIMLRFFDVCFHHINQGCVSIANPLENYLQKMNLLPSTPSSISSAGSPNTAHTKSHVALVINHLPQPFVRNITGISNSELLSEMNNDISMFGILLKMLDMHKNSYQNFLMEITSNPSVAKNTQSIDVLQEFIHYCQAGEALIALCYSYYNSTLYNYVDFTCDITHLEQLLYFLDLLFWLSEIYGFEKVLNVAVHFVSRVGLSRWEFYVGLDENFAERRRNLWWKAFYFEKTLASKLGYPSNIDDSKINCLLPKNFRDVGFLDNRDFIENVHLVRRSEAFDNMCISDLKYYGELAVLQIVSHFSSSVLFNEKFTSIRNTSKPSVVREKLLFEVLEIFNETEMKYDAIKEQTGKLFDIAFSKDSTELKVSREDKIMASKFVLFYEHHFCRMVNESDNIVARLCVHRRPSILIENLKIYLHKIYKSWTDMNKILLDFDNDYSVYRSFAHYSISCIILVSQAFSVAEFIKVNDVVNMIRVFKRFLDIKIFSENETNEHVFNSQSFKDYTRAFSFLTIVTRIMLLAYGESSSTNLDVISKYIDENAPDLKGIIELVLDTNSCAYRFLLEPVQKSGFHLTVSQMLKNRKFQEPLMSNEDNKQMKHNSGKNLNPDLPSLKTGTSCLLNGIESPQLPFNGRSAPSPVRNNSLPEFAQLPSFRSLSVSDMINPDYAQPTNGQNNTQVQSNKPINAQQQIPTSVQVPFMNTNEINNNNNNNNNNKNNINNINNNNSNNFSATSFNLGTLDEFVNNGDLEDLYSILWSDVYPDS

Variants of: B1
Details: with pdr1_yeast PDR1, P12383

Row | effect of a mutation on the interaction | Variant
1 | disrupting interaction | V76D
2 | disrupting interaction | S69D
3 | disrupting interaction | K63Q
4 | disrupting interaction | R78L
5 | disrupting interaction | V27D
6 | disrupting interaction | M77E
